± gives the standard deviation of the averaged measurements.
Tested on: ATP
Assay: switch fluorescence ratio, 500 uM ATP over buffer (Cy3 cluster intensity, sum of 5 cycles each) (fold (ratio)); higher = stronger signal-on switching upon ATP binding; sequences stand for … in TCGTCGGCAGCGTCAGATGTGTATAAGAGACAGTTTTTTTTTTTTTTTTTTTTTTTTT…TC
Settings: aptamer strand: ATP DNA aptamer (quencher-CACCTGGGGGAGTATTGCGGAGGAAGG + anchor), 100 nM annealed; ATP concentration: 500 uM
How it was run: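 Exposure to 500 uM ATP lasted 15 min at 22 °C before imaging, and a selection-buffer image was taken beforehand, for Cy3-labelled switching-strand clusters on a modified Illumina MiSeq flow-cell annealed to 100 nM quencher-labelled ATP aptamer. Five buffer/ATP cycles were run with NaOH stripping and re-annealing between them. The fluorescence ratio per cluster is summed target-cycle over summed buffer-cycle Cy3 intensity, averaged per switch-domain sequence. Clusters outside 100-1000 RFU were excluded.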

| Sequence | switch fluorescence ratio |
| --- | --- |
| GGTTCCATGC | 1.1 ± 0.014 |
| GGTTCGAAGG | 0.95 ± 0.032 |
| GGTTCGCAGC | 1.15 ± 0.025 |
| GGTTCGGGGA | 0.98 ± 0.019 |
| GGTTCGTGGG | 1.01 ± 0.02 |
| GGTTCTAGTG | 0.968 ± 0.025 |
| GGTTCTCAGT | 0.988 ± 0.0097 |
| GGTTCTCTAG | 0.976 ± 0.01 |
| GGTTCTTCAA | 1.01 ± 0.023 |
| GGTTGAACAT | 0.9661 ± 0.0027 |
| GGTTGACTCT | 1.01 ± 0.029 |
| GGTTGCAGCC | 1.02 ± 0.026 |
| GGTTGCTGTC | 0.964 ± 0.045 |
| GGTTGGAAAA | 1.0226 ± 0.00079 |
| GGTTGGAGGC | 1.03 ± 0.067 |
| GGTTGGCATG | 0.952 ± 0.03 |
| GGTTGGCGTC | 0.955 ± 0.041 |
| GGTTGGCTCG | 1 ± 0.025 |
| GGTTGGGCTT | 0.979 ± 0.012 |
| GGTTGGGTGG | 0.986 ± 0.03 |
| GGTTGGTACG | 1.01 ± 0.019 |
| GGTTGGTGCG | 1.1 ± 0.074 |
| GGTTGTAAAA | 0.9867 ± 0.0092 |

| Sequence | switch fluorescence ratio |
| --- | --- |
| GGTTGTAAGG | 1.01 ± 0.033 |
| GGTTGTATTT | 0.962 ± 0.06 |
| GGTTGTGGCT | 0.9883 ± 0.0059 |
| GGTTGTTGGA | 0.999 ± 0.0057 |
| GGTTTAAATA | 1.003 ± 0.0092 |
| GGTTTAAGGG | 0.972 ± 0.023 |
| GGTTTACGCT | 0.996 ± 0.027 |
| GGTTTAGACT | 0.99 ± 0.036 |
| GGTTTAGGAC | 0.971 ± 0.016 |
| GGTTTAGGTG | 1.14 ± 0.059 |
| GGTTTATTTT | 0.9946 ± 0.0013 |
| GGTTTCAAAA | 0.99668 ± 0.00038 |
| GGTTTCAGTG | 1.01 ± 0.025 |
| GGTTTCGAAT | 0.98 ± 0.049 |
| GGTTTCGGTG | 1.008 ± 0.0098 |
| GGTTTCGTAG | 1.01 ± 0.027 |
| GGTTTCTCGG | 1.019 ± 0.0092 |
| GGTTTCTTGC | 1.02 ± 0.011 |
| GGTTTGCAGG | 0.967 ± 0.05 |
| GGTTTGCGGC | 0.994 ± 0.036 |
| GGTTTGGAGA | 1.024 ± 0.0091 |
| GGTTTGGCGA | 0.988 ± 0.044 |
| GGTTTGGGTA | 1.01 ± 0.0044 |

| Sequence | switch fluorescence ratio |
| --- | --- |
| GGTTTGTATG | 0.976 ± 0.021 |
| GGTTTTAAAA | 0.99 ± 0.013 |
| GGTTTTATGT | 0.984 ± 0.032 |
| GGTTTTCATT | 0.951 ± 0.053 |
| GGTTTTCCGT | 1.07 ± 0.051 |
| GGTTTTCCTG | 0.975 ± 0.014 |
| GGTTTTCTAA | 0.9838 ± 0.0051 |
| GGTTTTCTTT | 1 ± 0.035 |
| GGTTTTGCGG | 0.997 ± 0.029 |
| GGTTTTGCTG | 1.05 ± 0.053 |
| GGTTTTGGAT | 0.986 ± 0.019 |
| GGTTTTGTTA | 1.03 ± 0.086 |
| GGTTTTTCCG | 1.03 ± 0.033 |
| GGTTTTTTGA | 1.01 ± 0.038 |
| GGTTTTTTGG | 0.98 ± 0.021 |
| GGTTTTTTTA | 0.983 ± 0.032 |
| GTAAAAATTG | 0.986 ± 0.028 |
| GTAACATGGG | 0.973 ± 0.021 |
| GTAACGGAAC | 1.13 ± 0.018 |
| GTAACGTAAG | 1.03 ± 0.034 |
| GTAAGAGCGT | 0.996 ± 0.041 |
| GTAAGGAAGG | 0.989 ± 0.012 |
| GTAAGGGGGG | 0.994 ± 0.028 |

| Sequence | switch fluorescence ratio |
| --- | --- |
| GTAAGGGGGT | 0.9731 ± 0.0091 |
| GTAAGGGGTG | 1.01 ± 0.014 |
| GTAAGGGGTT | 1.033 ± 0.0064 |
| GTAAGTCATT | 1 ± 0.029 |
| GTAATATGCG | 0.987 ± 0.018 |
| GTAATATGTG | 0.991 ± 0.013 |
| GTAATCTGTT | 0.989 ± 0.075 |
| GTAATGAGGT | 1.01 ± 0.024 |
| GTAATGGACC | 1.03 ± 0.043 |
| GTAATGGTTT | 1.07 ± 0.17 |
| GTAATGTATC | 1.03 ± 0.046 |
| GTACTTGGGA | 1.04 ± 0.074 |
| GTAGAGGGGA | 1.02 ± 0.016 |
| GTAGATAGTT | 1.02 ± 0.036 |
| GTAGCAAGGG | 2.38 ± 1.9 |
| GTAGCCTGGT | 0.989 ± 0.041 |
| GTAGCTCTTA | 1.04 ± 0.019 |
| GTAGGAAATA | 1.02 ± 0.02 |
| GTAGGAGGTA | 0.9807 ± 0.0039 |
| GTAGGCAACA | 1.01 ± 0.068 |
| GTAGGGACCG | 0.909 ± 0.025 |
| GTAGGGAGCA | 1.02 ± 0.022 |
| GTAGGGATAG | 1.02 ± 0.057 |

| Sequence | switch fluorescence ratio |
| --- | --- |
| GTAGGGGACA | 1.06 ± 0.012 |
| GTAGGGGAGC | 0.977 ± 0.06 |
| GTAGGGGCCT | 1.057 ± 0.0073 |
| GTAGGGGGAG | 0.9884 ± 0.004 |
| GTAGGGGTAA | 0.974 ± 0.036 |
| GTAGGGGTAC | 1.47 ± 0.72 |
| GTAGGGGTTT | 0.998 ± 0.034 |
| GTAGGGTGTG | 0.973 ± 0.041 |
| GTAGGTAGCG | 0.984 ± 0.031 |
| GTAGGTAGTT | 1.09 ± 0.14 |
| GTAGTAAAGG | 0.9867 ± 0.0034 |
| GTAGTCCAGG | 1.27 ± 0.082 |
| GTAGTCGTAC | 1.11 ± 0.064 |
| GTAGTGCAAT | 1.1 ± 0.018 |
| GTAGTTAATG | 0.984 ± 0.038 |
| GTAGTTGGAG | 0.992 ± 0.034 |
| GTATAAATGG | 0.978 ± 0.023 |
| GTATAAGTTG | 1.02 ± 0.047 |
| GTATATATAG | 1.02 ± 0.03 |
| GTATCAGGCC | 0.992 ± 0.01 |
| GTATCGAGAG | 1.01 ± 0.013 |
| GTATCGTACG | 0.984 ± 0.014 |
| GTATCTGGGG | 0.998 ± 0.059 |

| Sequence | switch fluorescence ratio |
| --- | --- |
| GTATGAATGG | 0.984 ± 0.049 |
| GTATGCCGGG | 0.939 ± 0.057 |
| GTATGCTTTT | 1.034 ± 0.0043 |
| GTATGGAGGG | 1.02 ± 0.029 |
| GTATGGCTGG | 0.976 ± 0.044 |
| GTATGTAGCG | 0.987 ± 0.027 |
| GTATGTATTT | 0.986 ± 0.021 |
| GTATGTTAGG | 1.0143 ± 0.00055 |
| GTATTAGGGC | 1.02 ± 0.0034 |
| GTATTATAGG | 1.006 ± 0.0042 |
| GTATTCTCCA | 1.018 ± 0.0043 |
| GTATTTAGGG | 1.03 ± 0.039 |
| GTATTTGGGC | 0.994 ± 0.012 |
| GTATTTGTTC | 1.01 ± 0.034 |
| GTATTTTTGA | 1.003 ± 0.0091 |
| GTATTTTTGC | 1.02 ± 0.024 |
| GTCAAACGGA | 0.986 ± 0.018 |
| GTCAAAGGGT | 0.99 ± 0.022 |
| GTCAATTAGG | 0.997 ± 0.024 |
| GTCACCAGGG | 1.58 ± 0.082 |
| GTCACGGGGG | 1.026 ± 0.0027 |
| GTCAGAGGGG | 0.979 ± 0.028 |
| GTCAGATAGG | 1.004 ± 0.008 |

| Sequence | switch fluorescence ratio |
| --- | --- |
| GTCAGGGGTG | 1.04 ± 0.052 |
| GTCATGCGTG | 0.974 ± 0.044 |
| GTCATTGGGT | 0.99 ± 0.021 |
| GTCATTTTGG | 1.03 ± 0.036 |
| GTCCGGGGGG | 1.26 ± 0.015 |
| GTCCTCGCAT | 4.8 ± 0.54 |
| GTCCTGGGGC | 0.9947 ± 0.0014 |
| GTCGAAAGGG | 1.01 ± 0.05 |
| GTCGAAAGGT | 0.984 ± 0.019 |
| GTCGAAGGGT | 1 ± 0.048 |
| GTCGACAGCG | 1.02 ± 0.035 |
| GTCGAGGGAA | 0.995 ± 0.022 |
| GTCGAGGGTC | 0.944 ± 0.03 |
| GTCGATAGCG | 0.984 ± 0.015 |
| GTCGATGGGG | 0.969 ± 0.014 |
| GTCGATGGTG | 1 ± 0.016 |
| GTCGCGGCGA | 0.9664 ± 0.006 |
| GTCGCGGGGG | 1.04 ± 0.071 |
| GTCGGACCCG | 0.973 ± 0.019 |

— the supplement of paper PMC10126150
